In EP1874358B1:

Key:
CEA = CEA (UniProt P06731); assay: SE-HPLC of 125I-TF2 mixed with a 20-fold molar excess of CEA
[1] = molecular target: fusion protein containing the A3B3 domain of CEA (UniProt P06731); assay: competitive ELISA against HRP-conjugated hMN-14 IgG (1 nM) on A3B3 fusion protein

percent shifted to a high molecular weight species (CEA): 95% | fold avidity relative to TF1 [1]: 2 fold
Substance: TF2 (bispecific antibody)
